Results published in the Human Domainome abundance scans (Beltran et al. 2025).
± gives the uncertainty stated by the source.

B1: Steroid hormone receptor ERR2, residues 100 to 176; numbered along this chain, O95718 (parent)
chain: KRLCLVCGDIASGYHYGVASCEACKAFFKRTIQGNIEYSCPATNECEITKRRRKSCQACRFMKCLKVGMLKEGVRLD

Variants of: B1
Assay: abundance fitness (aPCA) (normalised: wild type 0, dead -1); higher = more abundant; growth selection in yeast, the domain comes from the species named
Settings: Homo sapiens

| Variant | abundance fitness |
| --- | --- |
| A58W | -0.308 ± 0.059 |
| A58E | -0.235 ± 0.059 |
| A58R | -0.076 ± 0.04 |
| A58S | -0.33 ± 0.065 |
| A58P | -0.61 ± 0.14 |
| A58L | -0.44 ± 0.056 |
| A58K | -0.089 ± 0.065 |
| A58Y | -0.347 ± 0.11 |
| A58V | -0.772 ± 0.097 |
| K29G | 0.096 ± 0.034 |
| K29A | 0.18 ± 0.043 |
| K29C | -0.335 ± 0.11 |
| K29R | 0.085 ± 0.039 |
| K29Q | 0.129 ± 0.054 |
| K29E | 0.217 ± 0.053 |
| A23E | 0.094 ± 0.054 |
| F28E | -0.638 ± 0.084 |
| F28T | -0.664 ± 0.12 |
| F28G | -0.687 ± 0.055 |
| F28Y | -0.78 ± 0.2 |
| F28L | -0.413 ± 0.051 |
| F28N | -0.922 ± 0.35 |
| F28C | -0.843 ± 0.16 |
| Y16Q | -0.366 ± 0.078 |

| Variant | abundance fitness |
| --- | --- |
| Y16G | -0.08 ± 0.045 |
| Y16K | -0.315 ± 0.084 |
| Y16C | -0.213 ± 0.077 |
| S12Q | 0.115 ± 0.068 |
| S12T | -0.138 ± 0.06 |
| S12D | 0.022 ± 0.072 |
| I10V | 0.242 ± 0.041 |
| I10R | -0.046 ± 0.044 |
| I10T | 0.02 ± 0.062 |
| C24G | -0.903 ± 0.069 |
| C24Y | -0.837 ± 0.2 |
| C24V | -0.906 ± 0.084 |
| T49C | -0.948 ± 0.31 |
| T49V | -0.138 ± 0.073 |
| H15N | -0.143 ± 0.077 |
| H15L | -0.223 ± 0.062 |
| C7E | -0.874 ± 0.13 |
| C7F | -0.362 ± 0.12 |
| C7Y | -0.993 ± 0.32 |
| C7N | -0.635 ± 0.19 |
| R75I | -0.051 ± 0.095 |
| I32K | -0.337 ± 0.08 |
| I32F | -0.115 ± 0.12 |
| I32D | -0.642 ± 0.17 |

| Variant | abundance fitness |
| --- | --- |
| I32P | -0.589 ± 0.16 |
| I36A | -0.032 ± 0.048 |
| S39C | 0.189 ± 0.06 |
| S39D | 0.441 ± 0.076 |
| S39F | 0.374 ± 0.1 |
| V6G | -0.768 ± 0.087 |
| V6L | -0.836 ± 0.11 |
| V6M | -1.01 ± 0.19 |
| V6T | -0.51 ± 0.1 |
| V6W | -0.751 ± 0.14 |
| E22T | -0.19 ± 0.061 |
| E22K | -0.443 ± 0.091 |
| K71A | -0.109 ± 0.054 |
| K71P | -0.19 ± 0.084 |
| K71N | -0.147 ± 0.093 |
| K71D | -0.102 ± 0.08 |
| R60V | -0.098 ± 0.044 |
| Y38Q | -0.841 ± 0.16 |
| Y38F | -0.037 ± 0.13 |
| Y38T | -0.636 ± 0.13 |
| G34F | 0.144 ± 0.072 |
| G34I | -0.336 ± 0.2 |
| G34A | 0.135 ± 0.043 |
| G34D | 0.116 ± 0.092 |

| Variant | abundance fitness |
| --- | --- |
| E72G | -0.122 ± 0.047 |
| E72F | -0.556 ± 0.15 |
| E72W | -0.503 ± 0.098 |
| E45G | 0.003 ± 0.042 |
| E45H | -0.143 ± 0.1 |
| E45L | -0.303 ± 0.06 |
| E45P | -0.637 ± 0.15 |
| R52A | -0.037 ± 0.054 |
| R52Q | 0.128 ± 0.069 |
| R52W | -0.043 ± 0.066 |
| R52T | 0.039 ± 0.069 |
| R52D | -0.242 ± 0.23 |
| R52M | -0.084 ± 0.085 |
| R52F | -0.056 ± 0.13 |
| F27H | -0.765 ± 0.22 |
| F27S | -0.746 ± 0.093 |
| F27D | -0.751 ± 0.18 |
| G73C | -0.126 ± 0.084 |
| G73L | -0.016 ± 0.046 |
| G73W | -0.031 ± 0.057 |
| G73T | 0.002 ± 0.063 |
| G73I | -0.441 ± 0.19 |
| K63E | -0.596 ± 0.082 |
| K63N | -0.605 ± 0.15 |

| Variant | abundance fitness |
| --- | --- |
| K63L | -0.55 ± 0.062 |
| K63R | -0.145 ± 0.041 |
| K63D | -0.783 ± 0.17 |
| K63Y | -0.982 ± 0.28 |
| K63W | -0.58 ± 0.079 |
| K25E | 0.41 ± 0.037 |
| K25M | 0.286 ± 0.048 |
| K25Y | 0.273 ± 0.067 |
| K25I | 0.091 ± 0.063 |
| T31D | -0.724 ± 0.2 |
| T31L | -0.83 ± 0.083 |
| T31G | -0.484 ± 0.052 |
| T31P | -0.951 ± 0.19 |
| L5Y | -0.186 ± 0.12 |
| L5T | -0.031 ± 0.06 |
| L5M | -0.139 ± 0.067 |
| L5F | -0.133 ± 0.11 |
| L5A | -0.192 ± 0.055 |
| L5R | -0.197 ± 0.045 |
| L76T | -0.024 ± 0.083 |
| L76I | -0.037 ± 0.15 |
| L76C | -0.099 ± 0.11 |
| L76D | 0.08 ± 0.09 |
| L76Y | -0.001 ± 0.12 |

| Variant | abundance fitness |
| --- | --- |
| L76Q | -0.007 ± 0.061 |
| C4Q | -0.759 ± 0.12 |
| C4Y | -0.426 ± 0.2 |
| C4W | -0.934 ± 0.15 |
| C4H | -0.956 ± 0.29 |
| C4D | -1.1 ± 0.32 |
| C4T | -0.79 ± 0.17 |
| C4S | -0.824 ± 0.11 |
| Y14H | -0.034 ± 0.093 |
| Y14C | 0.068 ± 0.079 |
| R53F | 0.065 ± 0.08 |
| R53L | 0.074 ± 0.057 |
| R53D | 0.026 ± 0.093 |
| R53K | 0.015 ± 0.078 |
| R53Y | -0.14 ± 0.13 |
| R53E | 0.073 ± 0.061 |
| R53M | 0.107 ± 0.082 |
| R2F | 0.16 ± 0.13 |
| R2E | -0.105 ± 0.071 |
| R2C | -0.111 ± 0.11 |
| R2V | -0.228 ± 0.066 |
| G13W | -0.64 ± 0.31 |
| G13R | -0.675 ± 0.14 |
| G13L | -0.743 ± 0.12 |

| Variant | abundance fitness |
| --- | --- |
| G13V | -0.38 ± 0.09 |
| G13S | -0.555 ± 0.12 |
| G13Y | -0.867 ± 0.33 |
| G13H | -0.759 ± 0.46 |
| F61D | -1.06 ± 0.32 |
| F61A | -0.444 ± 0.077 |
| C59R | -0.755 ± 0.074 |
| C59I | -0.542 ± 0.19 |
| C59M | -0.631 ± 0.1 |
| C59S | -0.887 ± 0.13 |
| C59N | -0.711 ± 0.24 |
| C59P | -0.688 ± 0.2 |
| C59V | -0.576 ± 0.066 |
| C59Y | -0.745 ± 0.27 |
| Q33S | -0.252 ± 0.067 |
| Q33N | -0.383 ± 0.13 |
| Q33K | -0.212 ± 0.094 |
| Q33H | -0.229 ± 0.11 |
| D77H | 0.082 ± 0.12 |
| D77Y | -0.29 ± 0.2 |
| D77C | -0.348 ± 0.18 |
| D77T | -0.04 ± 0.095 |
| D77V | -0.111 ± 0.068 |
